This is an account of results in patent publication US20020128189A1 (Harvard, published 2002).

To fix the notation:
B5: Full-length human UBCH5 (interactant in the yeast two-hybrid interaction trap) (enzyme, not shown: large carriers)
chain: not shown

The target of assay [1] is T1, AD-UBCE2A (full-length UBCE2A fused to the B42 transcription activation domain) (rat, UniProt P63279 1-158 (human entry)).
T1 construct: also called AD-UBCE2A library isolate; UBPCE2A
Put plainly: yeast two-hybrid interaction trap.

The target in assay [2] is B5. Put plainly: yeast two-hybrid interaction trap.
Assay [3] has as its target T1, AD-UBCE2A (full-length UBCE2A fused to …). In words: yeast two-hybrid interaction trap, beta-galactosidase. The source says: In order to assess the specificity of interaction and to map the interaction domains, cells of the yeast strain EGY48/pSH18-34 were transformed with the indicated bait constructs and library/interactant plasmids, and plated on Ura⁻ His⁻ Trp⁻ glucose plates. The bait constructs used in the specificity test were: LexA-Id3, which contains all of the Id3 coding sequence; LexA-c-Myc, which contains the C-terminal 137 amino acids of mouse c-Myc; LexA-Max, which contains all of the rat Max coding sequences; and LexA-Oct1, which includes amino acids 294-429 of human Oct 1 (containing the POU domain). Eight to twelve colonies from each bait/interactant combination were picked and plated in duplicate on Ura⁻ His⁻ Trp⁻ X-gal plates containing either 2% glucose or 2% galactose, 1% raffinose, and the color was assessed after 48 hours.
The specificity of the interaction partners was further examined by transforming yeast harboring expression plasmids encoding LexA fusions with various known HLH proteins. No interaction was detected with the HLH protein, Id3 (Christy et al., 1991, Proc. Natl. Acad. Sci. USA 88:1815-1819), the bHLH-leucine zipper protein, max (Blackwood et al., 1991, Science 251:1211-1217), or the homeodomain protein, Oct 1 (Sturm et al., 1988, Genes & Dev. 2:1582-1599); only weak promoter activity was discerned following introduction of LexA-myc. […]

Assay [4] has as its target T2, LexA-E12477-654 (amino acids 477 to 654 of human E12 fused to LexA) (human, UniProt P15923 477-654).
T2 construct: not shown: LexA encoded by the LexA gene of pEG202, N-terminal fusion partner
T2 sequence (looked up): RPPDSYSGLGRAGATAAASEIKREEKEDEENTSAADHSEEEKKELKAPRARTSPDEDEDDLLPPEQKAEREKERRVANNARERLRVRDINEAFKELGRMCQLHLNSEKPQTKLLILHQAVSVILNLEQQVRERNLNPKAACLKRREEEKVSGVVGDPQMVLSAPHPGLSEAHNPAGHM
In words: yeast two-hybrid interaction trap.

Ends that are not written are not given here.

T1 sequence (P63279 whole entry, the tested form may be a part): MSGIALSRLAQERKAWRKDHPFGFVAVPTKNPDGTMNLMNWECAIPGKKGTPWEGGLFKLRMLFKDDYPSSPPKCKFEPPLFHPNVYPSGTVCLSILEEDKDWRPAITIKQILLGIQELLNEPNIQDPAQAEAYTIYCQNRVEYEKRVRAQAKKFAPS

B1: LexA-E12477-530 (other, human, UniProt P15923 477-530, looked up)
chain: LexA-RPPDSYSGLGRAGATAAASEIKREEKEDEENTSAADHSEEEKKELKAPRARTSP
notes: not shown: LexA encoded by the LexA gene of pEG202, N-terminal fusion partner
Turning to B1, the binding result in assay [1] is listed as “binds”; in assay [2], “no binding”.

B2: LexA-E12539-654 (other, human, UniProt P15923 539-654, looked up)
chain: PPEQKAEREKERRVANNARERLRVRDINEAFKELGRMCQLHLNSEKPQTKLLILHQAVSVILNLEQQVRERNLNPKAACLKRREEEKVSGVVGDPQMVLSAPHPGLSEAHNPAGHM
notes: also called LexA-E12 lacking this region; not shown: LexA encoded by the LexA gene of pEG202, N-terminal fusion partner
For B2, in assay [1], the binding result is “no binding”.

B3: LexA-Oct1 (amino acids 294-429 of human Oct 1, containing the POU domain) (other, UniProt P14859 294-429, looked up)
chain: TFKQRRIKLGFTQGDVGLAMGKLYGNDFSQTTISRFEALNLSFKNMCKLKPLLEKWLNDAENLSSDSSLSSPSALNSPGIEGLSRRRKKRTSIETNIRVALEKSFLENQKPTSEEITMIADQLNMEKEVIRVWFCN
notes: range 294-429; Bait for the specificity test; not shown: LexA encoded by the LexA gene of pEG202, N-terminal fusion partner
B3: the binding result in assay [3] is “no binding”.

B4: LexA-Id3 (all of the Id3 coding sequence) (other, rat, UniProt P41138 1-119, looked up)
chain: MKALSPVRGCYEAVCCLSERSLAIARGRGKSPSAEEPLSLLDDMNHCYSRLRELVPGVPRGTQLSQVEILQRVIDYILDLQVVLAEPAPGPPDGPHLPIQTAELTPELVISKDKRSFCH
notes: Bait for the specificity test; not shown: LexA encoded by the LexA gene of pEG202, N-terminal fusion partner
Take B4: the binding result in assay [3] was “no binding”. For the molecule B5, in assay [4], the binding result was “no binding”.
